Consider 167 variants from the RNAGym collection of RNA variant scans (doi:10.7554/elife.90254).

Sequences and labels used below:
B1: LINE1-mini (parent)
chain: GGCAGAGCUCAACACAGCGUGGCAAAGUGGCUGUGGCUAGACUGCC

The variants in the data set derive from B1. Nature of the data set: self-cleavage, relative activity (ratio to wild type); higher = more cleavage; in vitro, sequencing; the parent is a self-cleaving ribozyme.
For the variant A11C C18A, the self-cleavage was determined as 0.02. To A11C C18G belongs 0.05. The result for A11C C18U reads 0.04. The result for C10U G21A reads 0.68; that for C10U G21C, 0.19. As to C10U G21U, the self-cleavage amounted to 0.33. The result for A11C A24U reads 0.11; that for A11C A24C, 0.04. To A11C A24G belongs 0.06; to C10G A12U, 0.03. As for A11C G22C, the self-cleavage worked out at 0.04. To A11C G22A belongs 0.12; to A11C G22U, 0.07. To C10U G17C belongs 0.61; to C10U G17A, 0.34. To C10U G17U belongs 0.33; to A11C A16U, 0.02. On to A11C A16G, for which the self-cleavage is 0.05. To A11C A16C belongs 0.01; to C10U U43A, 0.04; to C10U U43C, 0.03. The result for C10U U43G reads 0.19; that for C10G A14U, 0.05; that for C10G A14G, 0.09. In the case of C10G A14C, the self-cleavage was 0.04. On to C10G C46A, for which the self-cleavage was 0.09. To C10G C46G belongs 0.05; to C10G C46U, 0.06; to A11C U34C, 0.04. In the case of A11C U34G, the self-cleavage was determined as 0.04. For the variant A11C U34A, the self-cleavage amounted to 0.02. With A11C A26U, the self-cleavage was 0.11.

Take A11C A26G: the self-cleavage came out at 0.05.

With A11C A26C, the self-cleavage is 0.03. The result for C10G G19C reads 0.06; that for C10G G19U, 0.11; that for C10G G19A, 0.1. C10U A16C: the self-cleavage was determined as 0.06. The result for C10U A16G reads 0.19; that for C10U A16U, 0.19.

Take C10G C31G: the self-cleavage came out at 0.02. On to C10G C31A, for which the self-cleavage stood at 0.04. To C10G C31U belongs 0.05; to C10G G22A, 0.13; to C10G G22U, 0.11.

Consider C10G G22C, for which the self-cleavage stood at 0.12. Regarding C10U G27U, the self-cleavage is 0.31. The result for C10U G27C reads 0.23; that for C10U G27A, 0.27. To C10U C31U belongs 0.54; to C10U C31A, 0.13; to C10U C31G, 0.05.

Take C10U C23G: the self-cleavage came out at 0.26. To C10U C23U belongs 0.43; to C10U C23A, 0.43; to C10U A14U, 0.14. C10U A14C: the self-cleavage stood at 0.05. In the case of C10U A14G, the self-cleavage came out at 0.22. The result for C10G U32C reads 0.03. For the variant C10G U32A, the self-cleavage amounted to 0.02. Turning to C10G U32G, the self-cleavage came to 0.02. As for C10G U28C, the self-cleavage was 0.12. For the variant C10G U28G, the self-cleavage came to 0.08. Regarding C10G U28A, the self-cleavage worked out at 0.11.

Regarding C10G U38C, the self-cleavage was 0.02. C10G U38G: the self-cleavage worked out at 0.03. As to C10G U38A, the self-cleavage came to 0.06. The result for C10G A39C reads 0.02; that for C10G A39G, 0.03; that for C10G A39U, 0.16. On to C10U C42G, for which the self-cleavage worked out at 0.05. To C10U C42A belongs 0.05; to C10U C42U, 0.1; to C10U C37U, 0.02. In the case of C10U C37G, the self-cleavage is 0.02. Consider C10U C37A, for which the self-cleavage worked out at 0.02. In the case of C10U C18U, the self-cleavage stood at 0.34. The result for C10U C18G reads 0.22; that for C10U C18A, 0.28; that for A11C C45G, 0.02. As for A11C C45A, the self-cleavage came to 0.05.

Turning to A11C C45U, the self-cleavage stood at 0.12.

Turning to C10U G33U, the self-cleavage was 0.04.

As for C10U G33A, the self-cleavage turned out to be 0.05. To C10U G33C belongs 0.04; to C10G G30U, 0.22; to C10G G30A, 0.21. The result for C10G G30C reads 0.2; that for A11G A25U, 0.02. The result for A11G A25G reads 0.05; that for A11G A25C, 0.03.

On to A11C G17C, for which the self-cleavage worked out at 0.02. To A11C G17A belongs 0.03; to A11C G17U, 0.03; to C10G U43A, 0.01. To C10G U43G belongs 0.02; to C10G U43C, 0.02. The result for C10G C45U reads 0.14; that for C10G C45A, 0.07; that for C10G C45G, 0.02. C10G G36U: the self-cleavage is 0.02.

With C10G G36A, the self-cleavage turned out to be 0.01. The result for C10G G36C reads 0.03; that for A11C G40A, 0.02; that for A11C G40C, 0.04. To A11C G40U belongs 0.02; to A11C A25G, 0.08.

Turning to A11C A25U, the self-cleavage was determined as 0.09.

On to A11C A25C, for which the self-cleavage stood at 0.09.

A11C U20A: the self-cleavage is 0.02. To A11C U20G belongs 0.04. To A11C U20C belongs 0.02; to C10U A12U, 0.08; to C10U A12C, 0.02. To C10U A12G belongs 0.02; to C10U G44U, 0.13; to C10U G44C, 0.16. In the case of C10U G44A, the self-cleavage came to 0.15. The result for C10U C15G reads 0.05. For C10U C15A, the self-cleavage was found to be 0.06. For the variant C10U C15U, the self-cleavage turned out to be 0.28. The result for A11C G30C reads 0.04; that for A11C G30A, 0.08; that for A11C G30U, 0.05. In the case of A11G A26C, the self-cleavage came to 0.03. To A11C C31U belongs 0.03; to A11C C31G, 0.01. To A11C C31A belongs 0.02; to A11C U28C, 0.03; to A11C U28A, 0.06. In the case of A11C U28G, the self-cleavage stood at 0.05. With A11C C37G, the self-cleavage turned out to be 0.01. To A11C C37A belongs 0.02. To A11C C37U belongs 0.02; to A11C G36A, 0.04; to A11C G36C, 0.03. On to A11C G36U, for which the self-cleavage was 0.01.

Regarding C10G G44C, the self-cleavage is 0.06.

As for C10G G44A, the self-cleavage was 0.05. The result for C10G G44U reads 0.04; that for C10U U28G, 0.23; that for C10U U28A, 0.16. The result for C10U U28C reads 0.13. As for A11C C13G, the self-cleavage was determined as 0.03. Turning to A11C C13U, the self-cleavage came to 0.03. On to A11C C13A, for which the self-cleavage came to 0.03.

On to C10U A39C, for which the self-cleavage was found to be 0.17.

As for C10U A39G, the self-cleavage is 0.08.

For the variant C10U A39U, the self-cleavage is 0.37.

Take C10U C45G: the self-cleavage amounted to 0.15. The result for C10U C45U reads 0.23; that for C10U C45A, 0.15. The result for C10U C46G reads 0.32; that for C10U C46U, 0.21; that for C10U C46A, 0.33. The result for C10U A26G reads 0.4. Consider C10U A26C, for which the self-cleavage worked out at 0.31.

Turning to C10U A26U, the self-cleavage is 0.31. For the variant A11G A14G, the self-cleavage amounted to 0.02. Take A11G A14C: the self-cleavage was found to be 0.02.

As for A11G A14U, the self-cleavage came out at 0.03. For A11C A12C, the self-cleavage turned out to be 0.02.

Take A11C A12U: the self-cleavage amounted to 0.03. The result for A11C A12G reads 0.04; that for C10G A24C, 0.06; that for C10G A24U, 0.15.

In the case of C10G A24G, the self-cleavage was determined as 0.1.
